# Laboratory results published in patent publication US9221915 (dated 2015).
# Numbering of substitutions follows the chain as printed. Names and notes keep the numbering of the source.
# T1: rat ALK-1 cell surface (rat, UniProt P80203)
# T1 chain: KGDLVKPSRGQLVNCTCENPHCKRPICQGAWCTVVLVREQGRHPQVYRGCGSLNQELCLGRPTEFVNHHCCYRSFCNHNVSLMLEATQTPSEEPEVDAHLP
# T2: cynomolgus ALK-1 cell surface (cynomolgus monkey)
# T2 chain: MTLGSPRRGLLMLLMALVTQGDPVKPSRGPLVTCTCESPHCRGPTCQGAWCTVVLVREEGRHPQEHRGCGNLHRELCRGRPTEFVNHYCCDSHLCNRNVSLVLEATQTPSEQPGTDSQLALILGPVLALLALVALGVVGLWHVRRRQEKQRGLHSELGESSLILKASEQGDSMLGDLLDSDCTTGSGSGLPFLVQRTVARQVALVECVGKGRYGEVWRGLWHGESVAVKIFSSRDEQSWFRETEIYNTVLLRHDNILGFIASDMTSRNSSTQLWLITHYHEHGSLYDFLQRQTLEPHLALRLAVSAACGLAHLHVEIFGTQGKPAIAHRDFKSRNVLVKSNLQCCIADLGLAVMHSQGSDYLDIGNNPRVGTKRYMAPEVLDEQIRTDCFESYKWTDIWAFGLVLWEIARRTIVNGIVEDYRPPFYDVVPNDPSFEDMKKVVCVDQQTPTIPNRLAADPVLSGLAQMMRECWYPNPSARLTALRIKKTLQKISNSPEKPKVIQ
# T3: cynomolgus ALK-1/Fc (cynomolgus monkey)
# T3 chain: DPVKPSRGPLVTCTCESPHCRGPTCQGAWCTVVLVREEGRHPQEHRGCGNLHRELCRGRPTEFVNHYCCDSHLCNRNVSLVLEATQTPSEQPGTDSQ
# B1: 1.12.1 (antibody, V domains shown)
# VH: QVQLQESGPGLVKPSQTLSLTCTVSGGSMSSGEYYWNWIRQHPGKGLEWIGYIYYSGSTYYNPSLKSRVTISVDTSKNQFSLKLSSVTAADTAVYYCARESVAGFDYWGQGTLVTVSS
# VL: not shown
# B2: 4.62.1 (antibody, V domains shown)
# VH: B1 VH with M29I, E33D, V102T, A103D, F105M, Y107V, L113T
# VL: not shown
# B3: 4.68.1 (antibody, V domains shown)
# VH: B1 VH with M29I, E33D, S101D, V102I, Y107P
# VL: not shown
# B4: 4.24.1 (antibody, V domains shown)
# VH: B1 VH with M29I, G32N, E33D, V102T, A103D, F105M, Y107V, L113T
# VL: ENVLTQSPGTLSLSPGERATLSCRASQSVSSNYLAWYQQKPGQAPRLLIYGASSGATGIPDRFSGSGSGTDFTLTISRLEPEDFAVYYCQHYGSSPITFGQGTRLEIK
# B5: 5.13.1 (antibody, V domains shown)
# VH: B1 VH with M29I, E33D, S101G, V102L, A103E, G104A, Y107I, L113M, V116D
# VL: B4 VL with N2I, N32S, G51D, G55R, P96L, I97L, Q101G, R104K, L105V
# B6: 1.162.1 (antibody, V domains shown)
# VH: B1 VH with T21I, M29I, N37S, V69L, S101G, V102I, A103G, G104A, Y107I, L113M
# VL: B4 VL with N2I, N32S, G55R, S77I, E80D, H91R
# B7: 4.72.1 (antibody, V domains shown)
# VH: B1 VH with M29I, N37S, Y54F, V73L, V102T, A103D, F105M, Y107V, L113T
# VL: B4 VL with N2I, N32S, Q39R, A52V, G55R, H91Q, P96M
# B8: 1.12.1(D19A) (antibody, V domains shown)
# VH: B1 VH
# VL: not shown
# B9: 4.38.1 (antibody, V domains shown)
# VH: QVQLQESGPGLVKPSQTLSLTCTVSGGSISSGDYYWSWIRQHPGKGLEWIGYIYYSGSTYYNPSLKSRVTISIDTSKNQFSLKLSSVTAADTAVYYCARERDYGGGFDYWGQGTLVTVSS
# VL: not shown
# B10: 4.72.2 (antibody, V domains shown)
# VH: B1 VH with M29I, N37S, Y54F, V73L, V102T, A103D, F105M, Y107V, L113T
# VL: B4 VL with N2I, N32S, Q39R, A52V, G55R, H91Q, P96M
# B11: 4.58.2 (antibody, V domains shown)
# VH: B1 VH with M29I, E33D, D74A, S101A, V102T, A103E
# VL: B4 VL with N2I, S31T, N32T, G55R, V86L, S94T, P96S
# B12: 1.14.2 (antibody, V domains shown)
# VH: B1 VH with Q16E, M29V, E33D, H42P, Y60N, S101A, A103S, G104A
# VL: B4 VL with N2I, N32T, Y37H, A52V, G55R, T57S, I59V, H91Q
# B13: 4.24.2 (antibody, V domains shown)
# VH: B1 VH with M29I, G32N, E33D, V102T, A103D, F105M, Y107V, L113T
# VL: B4 VL
# B14: 1.183.2 (antibody, V domains shown)
# VH: QVQLQESGPGLVKPSETLSLTCTVSGGSISSYYWSWIRQPPGKGLEWIGYIYYSGSTNYNPSLKSRVTISVDTSKNQFSLKLSSVTAADTAVYYCAREDDSSGCPYFDYWGQGTLVTASS
# VL: EIVMTQSPATLSVSPGERATLSCRASQSVSSNLAWYQQKPGQAPRVLIYGASTRATGIPVRFSGSGSGTEFTLTISSLQSEDFAVYYCQQYNNWPFTFGPGTKVDIK
# B15: 4.68.2 (antibody, V domains shown)
# VH: B1 VH with M29I, E33D, S101D, V102I, Y107P
# VL: not shown
# B16: 5.13.3 (antibody, V domains shown)
# VH: B1 VH with M29I, E33D, S101G, V102L, A103E, G104A, Y107I, L113M, V116D
# VL: B4 VL with N2I, N32S, G51D, G55R, P96L, I97L, Q101G, R104K, L105V
# Molecular target: T1, rat ALK-1 cell surface
# Experiment: FACS
row,Kd [nM],Binder
1,> 100,B1

# Molecular target: T2, cynomolgus ALK-1 cell surface
# Experiment: FACS
row,Kd [nM],Binder
1,2,B1
2,0.78,B2
3,9,B3
4,3.1,B4
5,1.6,B5
6,3,B6
7,3.8,B7

# Molecular target: T2, cynomolgus ALK-1 cell surface
# Experiment: FACS
# Remark: another data set of the same source
row,Kd [nM],Binder
1,2,B1
2,3.8,B8

# Molecular target: human ALK-1/Fc (human, UniProt P37023)
# Experiment: SPR, bivalent
row,Kd [nM],Binder
1,0.1,B9
2,0.073,B10
3,0.018,B6
4,0.04,B11
5,0.076,B12
6,0.07,B13
7,0.22,B14

# Molecular target: T3, cynomolgus ALK-1/Fc
# Experiment: SPR, bivalent
row,Kd [nM],Binder
1,0.15,B9
2,0.019,B2
3,0.28,B10
4,0.32,B15
5,0.19,B16
6,0.062,B6
7,0.13,B11
8,0.28,B12
9,0.43,B13
10,1.8,B14
